{"source": "paper PMC6170153", "about": "“Structures reveal opening of the store-operated calcium channel Orai” (eLife, 2018)", "proteins": {"B1": {"name": "H206A Orai_(cryst) (natural protein, Drosophila melanogaster, UniProt Q9U6B8 133-341, looked up)", "chain": "MSQSGEDLHSPTYLSWRKLQLSRAKLKASSKTSALLSGFAMVAMVEVQLDHDTNVPPGMLIAFAICTTLLVAVAMLALMISTCILPNIETVSNLHSISLVHESPHERLHWYIETAWAFSTLLGLILFLLEIAILCWVKFYDLSPPAAWSATVVLIPVMIIFMAFAIHFYRSLVSHKYEVTVSGIRELEMLKEQMEQDHLEHHNNIRNNG", "notes": "Hexameric channel; The model holds residues 148-327 without 181-191 and 220-239; also called open conformation"}, "B2": {"name": "K163W Orai_(cryst) (natural protein, Drosophila melanogaster, UniProt Q9U6B8 133-341, looked up)", "chain": "B1 chain with K31W, A74H", "notes": "Hexameric channel, solved in two crystal forms (I4_(1) and P4_(2)2_(1)2); also called K163W mutant"}, "B3": {"name": "WT Orai_(cryst) (natural protein, Drosophila melanogaster, UniProt Q9U6B8 133-341, looked up)", "chain": "B1 chain with A74H", "notes": "Drosophila melanogaster Orai, amino acids 133-341, with C224S and C283T (made to improve stability); wild-type Pro276 and Pro277; 24 subunits in four channels in the asymmetric unit (24-fold NCS), which makes six a channel; The model holds residues 148-327 without 181-191 and 220-239; also called wild-type (WT) Orai_(cryst); unlatched-closed conformation"}}, "key": {"[1]": {"molecular_target": "the molecule itself", "assay": "crystal structure; H206A Orai_(cryst), space group I4_(1), 6.7 Å, 24 subunits (four channels) in the asymmetric unit, 24-fold NCS averaging; crystals grown in 36-38% PEG400, 500 mM NaCl, 100 mM Tris-HCl pH 9.0"}, "[2]": {"molecular_target": "the molecule itself", "assay": "crystal structure; K163W Orai_(cryst), space group I4_(1), 6.1 Å, MIRAS, 24-fold NCS averaging; crystals grown in 26-28% PEG 400, 150 mM NaCl, 100 mM HEPES pH 7.5"}, "[3]": {"molecular_target": "the molecule itself", "assay": "crystal structure; WT Orai_(cryst), space group I4_(1), 6.9 Å, MR-SAD, 24-fold NCS averaging; crystals grown in 32-35% PEG 400, 0.1 M potassium phosphate pH 7.5"}}, "note": "Numbering of substitutions follows the chain as printed. In names and notes the source's numbering stands."}
{"protein": "B1", "values": [{"measurement": "stoichiometry N", "setting": "[1]", "result": 6}]}
{"protein": "B2", "values": [{"measurement": "stoichiometry N", "setting": "[2]", "result": 6}]}
{"protein": "B3", "values": [{"measurement": "binding result", "setting": "[3]", "result": "binds"}]}
